Laboratory results from paper PMC9482650, “Quantitative fragmentomics allow affinity mapping of interactomes” (Nature Communications, 2022).
Where a chain is given by its changes, count along the chain named.

T1: APBA2_2, Q99767
T1 sequence (Q99767 654-744, limits assumed, looked up): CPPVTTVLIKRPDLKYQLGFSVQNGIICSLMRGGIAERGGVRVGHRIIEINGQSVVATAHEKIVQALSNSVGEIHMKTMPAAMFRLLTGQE

T2: APBA3_1, O96018
T2 sequence (O96018 389-490, limits assumed, looked up): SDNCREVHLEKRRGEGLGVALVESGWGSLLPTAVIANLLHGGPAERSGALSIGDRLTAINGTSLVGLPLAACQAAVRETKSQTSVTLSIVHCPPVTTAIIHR

T3: GRIP1_4, Q9Y3R0
T3 sequence (Q9Y3R0 467-571, limits assumed, looked up): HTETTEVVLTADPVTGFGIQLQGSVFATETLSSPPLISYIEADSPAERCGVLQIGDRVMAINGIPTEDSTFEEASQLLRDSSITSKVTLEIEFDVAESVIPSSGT

T4: HTRA3, P83110
T4 sequence (P83110 354-453, limits assumed, looked up): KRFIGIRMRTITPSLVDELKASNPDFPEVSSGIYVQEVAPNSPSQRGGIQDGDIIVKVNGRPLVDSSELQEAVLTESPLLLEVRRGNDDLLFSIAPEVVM

T5: LIN7B, Q9HAP6
T5 sequence (Q9HAP6 88-185, limits assumed, looked up): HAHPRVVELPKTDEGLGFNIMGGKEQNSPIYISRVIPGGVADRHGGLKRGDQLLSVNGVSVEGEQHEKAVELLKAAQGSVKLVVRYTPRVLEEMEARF

T6: LIN7C, Q9NUP9
T6 sequence (Q9NUP9 88-185, limits assumed, looked up): T5 sequence (Q9HAP6 88-185, limits assumed, looked up) with A2S, D13E, V35I, V40I, Q65H, S79K, R89K, A96S

T7: MPDZ_5, O75970
T7 sequence (O75970 695-796, limits assumed, looked up): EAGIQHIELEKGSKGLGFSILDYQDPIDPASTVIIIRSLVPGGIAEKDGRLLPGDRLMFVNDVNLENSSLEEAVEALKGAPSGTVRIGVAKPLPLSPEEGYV

T8: NHERF3_3, Q5T2W1
T8 sequence (Q5T2W1 238-333, limits assumed, looked up): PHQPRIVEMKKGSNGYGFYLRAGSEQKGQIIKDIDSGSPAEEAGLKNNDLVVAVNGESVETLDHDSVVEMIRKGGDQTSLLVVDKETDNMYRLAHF

T9: PDZD7_3, Q9H5P4
T9 sequence (Q9H5P4 857-944, limits assumed, looked up): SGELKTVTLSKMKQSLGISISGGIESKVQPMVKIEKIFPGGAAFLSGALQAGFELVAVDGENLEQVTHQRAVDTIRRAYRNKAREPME


Target: AHNAK1, Q09666
Assay: holdup assay
Parameters: key: below the threshold = too weak to quantify, mostly under pKd 3.1 to 4
Details: plain residues with an end cap or a label only (N-terminal biotin on a linker: ado-ado)

AHNAK1, Q09666, sequence (Q09666 4-100): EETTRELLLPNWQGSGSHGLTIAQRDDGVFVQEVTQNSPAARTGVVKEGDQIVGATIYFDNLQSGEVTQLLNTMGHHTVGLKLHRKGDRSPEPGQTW

Binder | pKd
EGGKKRESEA [APPL1, Q9UKG1] | below the threshold
GSSSKEGTSV [RRBP1, Q9P2E9] | below the threshold

Target: T1, APBA2_2, Q99767
Assay: holdup assay
Parameters: key: below the threshold = too weak to quantify, mostly under pKd 3.1 to 4
Details: plain residues with an end cap or a label only (N-terminal biotin on a linker: ado-ado)

Binder | pKd
EGGKKRESEA [APPL1, Q9UKG1] | below the threshold
GSSSKEGTSV [RRBP1, Q9P2E9] | below the threshold

Target: T2, APBA3_1, O96018
Assay: holdup assay
Parameters: key: below the threshold = too weak to quantify, mostly under pKd 3.1 to 4
Details: plain residues with an end cap or a label only (N-terminal biotin on a linker: ado-ado)

Binder | pKd
EGGKKRESEA [APPL1, Q9UKG1] | below the threshold
GSSSKEGTSV [RRBP1, Q9P2E9] | below the threshold

Target: ARHGEF12, Q9NZN5-2
Assay: holdup assay
Parameters: key: below the threshold = too weak to quantify, mostly under pKd 3.1 to 4
Details: plain residues with an end cap or a label only (N-terminal biotin on a linker: ado-ado)

ARHGEF12, Q9NZN5-2, sequence (Q9NZN5 other isoform, or with tags, fused parts or gaps): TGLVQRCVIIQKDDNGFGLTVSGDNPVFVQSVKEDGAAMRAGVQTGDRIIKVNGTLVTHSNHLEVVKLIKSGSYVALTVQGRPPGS

Binder | pKd
EGGKKRESEA [APPL1, Q9UKG1] | below the threshold
GSSSKEGTSV [RRBP1, Q9P2E9] | 3.91

Target: DLG1_1, Q12959
Assay: holdup assay
Parameters: key: below the threshold = too weak to quantify, mostly under pKd 3.1 to 4
Details: plain residues with an end cap or a label only (N-terminal biotin on a linker: ado-ado)

Binder | pKd
EGGKKRESEA [APPL1, Q9UKG1] | below the threshold
GSSSKEGTSV [RRBP1, Q9P2E9] | 4.02

Target: DLG2_2, Q15700
Assay: holdup assay
Parameters: key: below the threshold = too weak to quantify, mostly under pKd 3.1 to 4
Details: plain residues with an end cap or a label only (N-terminal biotin on a linker: ado-ado)

DLG2_2, Q15700, sequence (Q15700 189-283): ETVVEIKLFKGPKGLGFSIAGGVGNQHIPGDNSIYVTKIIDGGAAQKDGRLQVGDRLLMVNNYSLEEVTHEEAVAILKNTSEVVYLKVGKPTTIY

Binder | pKd
EGGKKRESEA [APPL1, Q9UKG1] | below the threshold
GSSSKEGTSV [RRBP1, Q9P2E9] | 3.9

Target: DLG4_2, P78352
Assay: holdup assay
Parameters: key: below the threshold = too weak to quantify, mostly under pKd 3.1 to 4
Details: plain residues with an end cap or a label only (N-terminal biotin on a linker: ado-ado)

DLG4_2, P78352, sequence (P78352 155-259): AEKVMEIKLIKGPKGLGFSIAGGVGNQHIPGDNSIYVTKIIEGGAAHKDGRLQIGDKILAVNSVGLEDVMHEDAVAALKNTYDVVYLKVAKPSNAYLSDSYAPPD

Binder | pKd
EGGKKRESEA [APPL1, Q9UKG1] | below the threshold
GSSSKEGTSV [RRBP1, Q9P2E9] | 4.27

Target: DLG4_3, P78352
Assay: holdup assay
Parameters: key: below the threshold = too weak to quantify, mostly under pKd 3.1 to 4
Details: plain residues with an end cap or a label only (N-terminal biotin on a linker: ado-ado)

DLG4_3, P78352, sequence (P78352 306-403): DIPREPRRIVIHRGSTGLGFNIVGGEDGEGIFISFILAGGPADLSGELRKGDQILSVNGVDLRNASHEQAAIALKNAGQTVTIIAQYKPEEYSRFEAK

Binder | pKd
EGGKKRESEA [APPL1, Q9UKG1] | below the threshold
GSSSKEGTSV [RRBP1, Q9P2E9] | 3.64

Target: FRMPD3, Q5JV73
Assay: holdup assay
Parameters: key: below the threshold = too weak to quantify, mostly under pKd 3.1 to 4
Details: plain residues with an end cap or a label only (N-terminal biotin on a linker: ado-ado)

FRMPD3, Q5JV73, sequence (Q5JV73 12-100): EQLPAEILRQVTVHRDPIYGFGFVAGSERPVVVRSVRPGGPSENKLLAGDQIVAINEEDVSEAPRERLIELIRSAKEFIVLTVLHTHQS

Binder | pKd
EGGKKRESEA [APPL1, Q9UKG1] | below the threshold
GSSSKEGTSV [RRBP1, Q9P2E9] | below the threshold

Target: T3, GRIP1_4, Q9Y3R0
Assay: holdup assay
Parameters: key: below the threshold = too weak to quantify, mostly under pKd 3.1 to 4
Details: plain residues with an end cap or a label only (N-terminal biotin on a linker: ado-ado)

Binder | pKd
EGGKKRESEA [APPL1, Q9UKG1] | below the threshold
GSSSKEGTSV [RRBP1, Q9P2E9] | below the threshold

Target: GRIP2_7, Q9C0E4
Assay: holdup assay
Parameters: key: below the threshold = too weak to quantify, mostly under pKd 3.1 to 4
Details: plain residues with an end cap or a label only (N-terminal biotin on a linker: ado-ado)

GRIP2_7, Q9C0E4, sequence (Q9C0E4 934-1023): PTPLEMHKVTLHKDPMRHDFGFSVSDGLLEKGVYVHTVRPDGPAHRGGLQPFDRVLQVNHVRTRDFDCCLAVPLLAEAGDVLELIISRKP

Binder | pKd
EGGKKRESEA [APPL1, Q9UKG1] | below the threshold
GSSSKEGTSV [RRBP1, Q9P2E9] | below the threshold

Target: HTRA1, Q92743
Assay: holdup assay
Parameters: key: below the threshold = too weak to quantify, mostly under pKd 3.1 to 4
Details: plain residues with an end cap or a label only (N-terminal biotin on a linker: ado-ado)

HTRA1, Q92743, sequence (Q92743 360-477): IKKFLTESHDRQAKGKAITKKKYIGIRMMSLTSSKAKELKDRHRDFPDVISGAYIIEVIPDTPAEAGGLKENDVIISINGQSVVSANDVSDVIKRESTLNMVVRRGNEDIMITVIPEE

Binder | pKd
EGGKKRESEA [APPL1, Q9UKG1] | below the threshold
GSSSKEGTSV [RRBP1, Q9P2E9] | 3.84

Target: T4, HTRA3, P83110
Assay: holdup assay
Parameters: key: below the threshold = too weak to quantify, mostly under pKd 3.1 to 4
Details: plain residues with an end cap or a label only (N-terminal biotin on a linker: ado-ado)

Binder | pKd
EGGKKRESEA [APPL1, Q9UKG1] | below the threshold
GSSSKEGTSV [RRBP1, Q9P2E9] | below the threshold

Target: IL16_1, Q14005
Assay: holdup assay
Parameters: key: below the threshold = too weak to quantify, mostly under pKd 3.1 to 4
Details: plain residues with an end cap or a label only (N-terminal biotin on a linker: ado-ado)

IL16_1, Q14005, sequence (Q14005 210-306): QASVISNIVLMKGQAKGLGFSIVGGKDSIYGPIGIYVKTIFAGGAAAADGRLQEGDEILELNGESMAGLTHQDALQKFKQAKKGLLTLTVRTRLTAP

Binder | pKd
EGGKKRESEA [APPL1, Q9UKG1] | below the threshold
GSSSKEGTSV [RRBP1, Q9P2E9] | below the threshold

Target: IL16_4, Q14005
Assay: holdup assay
Parameters: key: below the threshold = too weak to quantify, mostly under pKd 3.1 to 4
Details: plain residues with an end cap or a label only (N-terminal biotin on a linker: ado-ado)

IL16_4, Q14005, sequence (Q14005 1229-1329): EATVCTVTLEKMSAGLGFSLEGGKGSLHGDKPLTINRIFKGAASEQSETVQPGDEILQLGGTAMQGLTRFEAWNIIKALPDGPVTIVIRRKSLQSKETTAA

Binder | pKd
EGGKKRESEA [APPL1, Q9UKG1] | below the threshold
GSSSKEGTSV [RRBP1, Q9P2E9] | 3.7

Target: Inadl_10, Q8NI35
Assay: holdup assay
Parameters: key: below the threshold = too weak to quantify, mostly under pKd 3.1 to 4
Details: plain residues with an end cap or a label only (N-terminal biotin on a linker: ado-ado)

Inadl_10, Q8NI35, sequence (Q8NI35 1673-1763): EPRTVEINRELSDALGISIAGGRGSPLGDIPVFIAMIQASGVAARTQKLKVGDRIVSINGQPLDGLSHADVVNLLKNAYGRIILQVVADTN

Binder | pKd
EGGKKRESEA [APPL1, Q9UKG1] | below the threshold
GSSSKEGTSV [RRBP1, Q9P2E9] | below the threshold

Target: Inadl_5, Q8NI35
Assay: holdup assay
Parameters: key: below the threshold = too weak to quantify, mostly under pKd 3.1 to 4
Details: plain residues with an end cap or a label only (N-terminal biotin on a linker: ado-ado)

Inadl_5, Q8NI35, sequence (Q8NI35 673-780): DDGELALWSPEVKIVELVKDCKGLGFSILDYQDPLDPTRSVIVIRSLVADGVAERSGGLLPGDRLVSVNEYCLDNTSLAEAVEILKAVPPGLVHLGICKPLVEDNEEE

Binder | pKd
EGGKKRESEA [APPL1, Q9UKG1] | below the threshold
GSSSKEGTSV [RRBP1, Q9P2E9] | below the threshold

Target: LAP2, Q96RT1
Assay: holdup assay
Parameters: key: below the threshold = too weak to quantify, mostly under pKd 3.1 to 4
Details: plain residues with an end cap or a label only (N-terminal biotin on a linker: ado-ado)

LAP2, Q96RT1, sequence (Q96RT1 other isoform, or with tags, fused parts or gaps): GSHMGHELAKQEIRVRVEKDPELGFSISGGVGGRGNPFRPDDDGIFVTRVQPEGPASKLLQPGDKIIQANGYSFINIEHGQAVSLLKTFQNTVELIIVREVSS

Binder | pKd
EGGKKRESEA [APPL1, Q9UKG1] | 3.59
GSSSKEGTSV [RRBP1, Q9P2E9] | 3.65

Target: LDB3, O75112
Assay: holdup assay
Parameters: key: below the threshold = too weak to quantify, mostly under pKd 3.1 to 4
Details: plain residues with an end cap or a label only (N-terminal biotin on a linker: ado-ado)

LDB3, O75112, sequence (O75112 1-94): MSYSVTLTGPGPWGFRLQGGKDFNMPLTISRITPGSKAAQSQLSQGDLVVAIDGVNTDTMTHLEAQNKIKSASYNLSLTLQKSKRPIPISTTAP

Binder | pKd
EGGKKRESEA [APPL1, Q9UKG1] | below the threshold
GSSSKEGTSV [RRBP1, Q9P2E9] | below the threshold

Target: T5, LIN7B, Q9HAP6
Assay: holdup assay
Parameters: key: below the threshold = too weak to quantify, mostly under pKd 3.1 to 4
Details: plain residues with an end cap or a label only (N-terminal biotin on a linker: ado-ado)

Binder | pKd
EGGKKRESEA [APPL1, Q9UKG1] | 3.75
GSSSKEGTSV [RRBP1, Q9P2E9] | below the threshold

Target: T6, LIN7C, Q9NUP9
Assay: holdup assay
Parameters: key: below the threshold = too weak to quantify, mostly under pKd 3.1 to 4
Details: plain residues with an end cap or a label only (N-terminal biotin on a linker: ado-ado)

Binder | pKd
EGGKKRESEA [APPL1, Q9UKG1] | below the threshold
GSSSKEGTSV [RRBP1, Q9P2E9] | below the threshold

Target: LNX1_3, Q8TBB1
Assay: holdup assay
Parameters: key: below the threshold = too weak to quantify, mostly under pKd 3.1 to 4
Details: plain residues with an end cap or a label only (N-terminal biotin on a linker: ado-ado)

LNX1_3, Q8TBB1, sequence (Q8TBB1 500-596): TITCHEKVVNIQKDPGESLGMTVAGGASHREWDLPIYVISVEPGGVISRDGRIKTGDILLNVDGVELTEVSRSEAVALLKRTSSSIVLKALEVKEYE

Binder | pKd
EGGKKRESEA [APPL1, Q9UKG1] | below the threshold
GSSSKEGTSV [RRBP1, Q9P2E9] | below the threshold

Target: MAGI2_3, Q86UL8
Assay: holdup assay
Parameters: key: below the threshold = too weak to quantify, mostly under pKd 3.1 to 4
Details: plain residues with an end cap or a label only (N-terminal biotin on a linker: ado-ado)

MAGI2_3, Q86UL8, sequence (Q86UL8 600-682): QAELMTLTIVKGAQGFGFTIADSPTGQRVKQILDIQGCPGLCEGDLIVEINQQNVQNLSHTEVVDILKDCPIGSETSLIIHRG

Binder | pKd
EGGKKRESEA [APPL1, Q9UKG1] | below the threshold
GSSSKEGTSV [RRBP1, Q9P2E9] | 3.54

Target: MAGI2_4, Q86UL8
Assay: holdup assay
Parameters: key: below the threshold = too weak to quantify, mostly under pKd 3.1 to 4
Details: plain residues with an end cap or a label only (N-terminal biotin on a linker: ado-ado)

MAGI2_4, Q86UL8, sequence (Q86UL8 772-865): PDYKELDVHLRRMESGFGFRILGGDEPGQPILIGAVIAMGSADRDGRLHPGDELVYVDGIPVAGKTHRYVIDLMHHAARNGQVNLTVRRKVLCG

Binder | pKd
EGGKKRESEA [APPL1, Q9UKG1] | below the threshold
GSSSKEGTSV [RRBP1, Q9P2E9] | 4.32

Target: T7, MPDZ_5, O75970
Assay: holdup assay
Parameters: key: below the threshold = too weak to quantify, mostly under pKd 3.1 to 4
Details: plain residues with an end cap or a label only (N-terminal biotin on a linker: ado-ado)

Binder | pKd
EGGKKRESEA [APPL1, Q9UKG1] | below the threshold
GSSSKEGTSV [RRBP1, Q9P2E9] | below the threshold

Target: T8, NHERF3_3, Q5T2W1
Assay: holdup assay
Parameters: key: below the threshold = too weak to quantify, mostly under pKd 3.1 to 4
Details: plain residues with an end cap or a label only (N-terminal biotin on a linker: ado-ado)

Binder | pKd
EGGKKRESEA [APPL1, Q9UKG1] | below the threshold
GSSSKEGTSV [RRBP1, Q9P2E9] | below the threshold

Target: PDLIM1, O00151
Assay: holdup assay
Parameters: key: below the threshold = too weak to quantify, mostly under pKd 3.1 to 4
Details: plain residues with an end cap or a label only (N-terminal biotin on a linker: ado-ado)

PDLIM1, O00151, sequence (O00151 1-87): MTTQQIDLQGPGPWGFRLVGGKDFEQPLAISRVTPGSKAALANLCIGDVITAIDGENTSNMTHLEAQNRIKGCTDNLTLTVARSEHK

Binder | pKd
EGGKKRESEA [APPL1, Q9UKG1] | below the threshold
GSSSKEGTSV [RRBP1, Q9P2E9] | below the threshold

Target: T9, PDZD7_3, Q9H5P4
Assay: holdup assay
Parameters: key: below the threshold = too weak to quantify, mostly under pKd 3.1 to 4
Details: plain residues with an end cap or a label only (N-terminal biotin on a linker: ado-ado)

Binder | pKd
EGGKKRESEA [APPL1, Q9UKG1] | 3.69
GSSSKEGTSV [RRBP1, Q9P2E9] | 4.28

Target: PDZRN4_1, Q6ZMN7
Assay: holdup assay
Parameters: key: below the threshold = too weak to quantify, mostly under pKd 3.1 to 4
Details: plain residues with an end cap or a label only (N-terminal biotin on a linker: ado-ado)

PDZRN4_1, Q6ZMN7, sequence (Q6ZMN7 213-318): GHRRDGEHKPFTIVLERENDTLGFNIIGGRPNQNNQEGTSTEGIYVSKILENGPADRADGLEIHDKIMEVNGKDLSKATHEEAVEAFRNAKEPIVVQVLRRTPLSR

Binder | pKd
EGGKKRESEA [APPL1, Q9UKG1] | below the threshold
GSSSKEGTSV [RRBP1, Q9P2E9] | 4.23
